The text below walks through data of patent publication US20170137467A1 (CHROMOTEK, published 2017).

Assay in all cases: peptide library pulldown on immobilized Nb, LC-MS of supernatant; ratio vs GFP-Nb control (1 = not captured, 0 = captured)
One assay addresses T1, BC2T H9M library peptide (human).
T1 peptide: Ac-PDRKAAVSMWQQ-NH2
A digest of the protocol:
(§1)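 Unbound peptide left in supernatant after 1 h pulldown in PBS/0.01% CHAPS measured by reversed-phase LC-MS (8–30% eluent B gradient, 20 min).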

Assay [1] deals with T2, BC2T Q12P library peptide (human).
T2 peptide: Ac-PDRKAAVSHWQP-NH2
The method in brief: as §1

Assay [2] concerns the target T3, BC2T Q11Y library peptide (human).
T3 peptide: Ac-PDRKAAVSHWYQ-NH2
The method in brief:
as §1

Assay [3] deals with T4, BC2T S8(I/L) library peptide, version 1 (N-terminal acetyl, C-terminal amide).
T4 construct: Ile and Leu versions are isobaric; two versions resolved but not assigned; also called BC2TS8X: I/L1
The method in brief:
as §1

For assay [4], the target named is T5, BC2T W10M library peptide (human).
T5 construct: also called BC2TW10X: M
T5 peptide: Ac-PDRKAAVSHMQQ-NH2
The method in brief:
as §1

Another assay deals with T6, BC2T S8R library peptide (human).
T6 construct: also called BC2TS8X: R
T6 peptide: Ac-PDRKAAVRHWQQ-NH2
A digest of the protocol:
as §1

The next assay deals with T7, BC2T S8D library peptide (human).
T7 construct: also called BC2TS8X: D
T7 peptide: Ac-PDRKAAVDHWQQ-NH2
A digest of the protocol: as §1

Assay [5] has as its target T8, BC2T Q11R library peptide (human).
T8 peptide: Ac-PDRKAAVSHWRQ-NH2
A digest of the protocol: as §1

Assay [6] addresses T9, BC2T W10R library peptide (human).
T9 construct: also called BC2TW10X: R
T9 peptide: Ac-PDRKAAVSHRQQ-NH2
The method in brief:
as §1

In assay [7] the target is T10, BC2T Q12E library peptide (human).
T10 peptide: Ac-PDRKAAVSHWQE-NH2
A digest of the protocol: as §1

Another assay concerns the target T11, BC2T S8N library peptide (human).
T11 construct: also called BC2TS8X: N
T11 peptide: Ac-PDRKAAVNHWQQ-NH2
The method in brief: as §1

Assay [8] addresses T12, BC2T Q12W library peptide (human).
T12 peptide: Ac-PDRKAAVSHWQW-NH2
A digest of the protocol: as §1

The target in assay [9] is T13, BC2T Q11W library peptide (human).
T13 peptide: Ac-PDRKAAVSHWWQ-NH2
A digest of the protocol: as §1

A further assay concerns the target T14, BC2T H9S library peptide (human).
T14 peptide: Ac-PDRKAAVSSWQQ-NH2
A digest of the protocol: as §1

Assay [10] addresses T15, BC2T Q11M library peptide (human).
T15 peptide: Ac-PDRKAAVSHWMQ-NH2
A digest of the protocol: as §1

Assay [11] addresses T16, BC2T Q12R library peptide (human).
T16 peptide: Ac-PDRKAAVSHWQR-NH2
A digest of the protocol: as §1

The target of assay [12] is T17, BC2T Q11(I/L) library peptide, version 1 (N-terminal acetyl, C-terminal amide).
T17 construct: Ile and Leu versions are isobaric; two versions resolved but not assigned; also called I/L1
The method in brief:
as §1

The target of assay [13] is T18, BC2T W10T library peptide (human).
T18 construct: also called BC2TW10X: T
T18 peptide: Ac-PDRKAAVSHTQQ-NH2
The method in brief: as §1

For assay [14], the target named is T19, BC2T Q12S library peptide (human).
T19 peptide: Ac-PDRKAAVSHWQS-NH2
A digest of the protocol:
as §1

The target in assay [15] is T20, BC2T W10S library peptide (human).
T20 construct: also called BC2TW10X: S
T20 peptide: Ac-PDRKAAVSHSQQ-NH2
The method in brief: as §1

B1: BC2-Nb(R106E) (VHH)
VHH: QVQLVESGGGLVQPGGSLTLSCTASGFTLDHYDIGWFRQAPGKEREGVSCINNSDDDTYYADSVKGRFTIFMDNAKDTVYLQMNSLKPEDTAIYYCAEARGCKRGEYEYDFWGQGTQVTVSS
notes: Headlock mutant; immobilized on beads in the library pulldown
For B1, the ratio with BC2T H9M library peptide stood at 0.2; in assay [1], 0.1; in [2], 0.1; in [3] it was 0.5; in assay [4], 1.1; in the assay with BC2T S8R library peptide, 0.9. Further, the ratio with BC2T S8D library peptide was 1; in [5], 0.1; in assay [6], 1.3; in [7] it was 0.6; with BC2T S8N library peptide it was 0.5; in assay [8], 0.2. In addition, the ratio in assay [9] is 0.1; in the assay with BC2T H9S library peptide it was 0.4; in [10], 0.2; in assay [11], 0; in [12], 0.2; in assay [13] it was 1.1. For the same molecule, the ratio in assay [14] was found to be 0.1; in [15], 1.2.
